In the supplement of paper PMC10567573:
± gives the standard deviation.

Assay: protein stability index of a GFP-peptide fusion (GPS, HEK-293T) (PSI 1-6); higher = more stable
[1] = treatment: DMSO, c terminus: a fixed tail appended
[2] = treatment: MLN4924 1 uM, 8 h, c terminus: a fixed tail appended
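Note: 24-mer peptide tiles fused after GFP, lentivirally expressed, FACS-sorted into six equal bins by GFP/DsRed ratio, decoded by Illumina sequencing, PSI is the read-weighted mean bin number.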

Sequence | protein stability index [1] | protein stability index [2] | protein stability index (treatment: DMSO, c terminus: native) | protein stability index (treatment: MLN4924 1 uM, 8 h, c terminus: native)
KKLEKYLQKLSALLMTADILAETG [ELOA2] | 2.74 ± 0.79 | 2.6 ± 0.055 |  | 
KKTMSTFHNLVSLNLNYNCISDEL [FBXO39] | 2.09 ± 0.21 | 2.18 ± 0.22 |  | 
KLEEVVNKKHGEAEKKKPKTQIVC [ZC3H15] | 4.64 ± 0.18 | 4.63 ± 0.24 |  | 
KLEWAIDEDELRKSLSELVDDKFG [PSD2] | 4.19 ± 0.086 | 4.09 ± 0.26 |  | 
KLILGMPTYGRSFTLASSSDTRVG [CHIT1] | 2.42 ± 0.36 | 2.46 ± 0.22 |  | 
KLMKILQPQDVDLALDSGASLLHL [RIPK4] | 2.11 ± 0.12 | 2.52 ± 0.21 |  | 
KLVRSPSGLRMVPEHRAFGSPFGL [ZFYVE21] | 2.32 ± 0.076 | 2.28 ± 0.22 |  | 
KMQQSKNQVVSSTNGELNTDDPTA [CSNK1G3] | 5.37 ± 0.21 | 5.34 ± 0.13 |  | 
KNDSLRKRYDGLKYDVKKVEEVVY [TSN] | 3.18 ± 0.22 | 3.32 ± 0.33 |  | 
KNGEWGTVCDDKWDLVSASVVCRE [LOXL2] | 3.85 ± 0.63 | 3.8 ± 0.73 |  | 
KNHVGKPLLKMDLNSEQAEQLERI [FAM98B] | 4.8 ± 0.16 | 4.67 ± 0.19 |  | 
KNWRNFASKWGMSYDELCFLEQRP [EDARADD] | 2.06 ± 0.18 | 2.02 ± 0.23 |  | 
KPEEPPQNLLREKIMKLPLPESLK [PCMTD1] | 4.57 ± 0.43 | 4.76 ± 0.13 |  | 
KPKMYFMTMIVSLAAVAWVGQQVH [ARL6IP1] | 2.83 ± 0.48 | 3.28 ± 0.69 |  | 
KPYIAAHFDVLPTEFTLGDDKHYG [PTPRD] | 3.28 ± 0.49 | 3.44 ± 0.14 |  | 
KQLEFGLKEAPVQDQGYKTLRLRE [ZNF8] | 4.3 ± 0.31 | 4.27 ± 0.22 |  | 
KQLEPLVAPLADGKVAVGQDDLTV [VPS39] | 5.14 ± 0.27 | 5.18 ± 0.21 |  | 
KREAGNLTKATAPDQKSSGGRDS [SSNA1] |  |  | 5.07 ± 0.23 | 5.25 ± 0.17
KRFQLTKLPPYLIFCIKRFTKNNF [USP39] | 2 ± 0.31 | 2.78 ± 0.81 |  | 
KRKMVSWEASSLGLVTAALHMVIV [KMT2E] | 2.53 ± 0.62 | 3.33 ± 0.57 |  | 
KRSAPSGPVRSSSGMGGRAPVSRG [RBMX] | 4.59 ± 0.25 | 4.57 ± 0.16 |  | 
KSERRNLLEDDSDEEEDFFLRGPS [VAMP4] | 5.09 ± 0.26 | 5.15 ± 0.66 |  | 
KTSSSSKAGFTASPFTNLLNGSSQ [CDC14A] | 3.46 ± 0.27 | 3.51 ± 0.31 |  | 

Sequence | protein stability index [1] | protein stability index [2] | protein stability index (treatment: DMSO, c terminus: native) | protein stability index (treatment: MLN4924 1 uM, 8 h, c terminus: native)
KTVLMIAIQLLSRMEYVHSKNLIY [CSNK1G1] | 3.04 ± 0.1 | 3.23 ± 0.54 |  | 
KVHIGYLPNKQVLGLSKLARIVEI [GCH1] | 2.84 ± 1.1 | 2.48 ± 0.8 |  | 
KVNSKKMLGKYNTPVSYRMAKTLV [ACSBG2] | 1.81 ± 0.082 | 2.05 ± 0.42 |  | 
KVPREKDEPGKGGFWRIDPQYAER [FOXJ1] | 4.12 ± 0.34 | 4.2 ± 0.21 |  | 
KVQFNLQFTKPNASLGDVQSGATI [SASS6] | 2.45 ± 0.37 | 2.66 ± 0.45 |  | 
KVSEGQADIMISFVRGDHRDNSPF [MMP1] | 3.1 ± 0.41 | 3.09 ± 0.52 |  | 
KYGGPNHHLPLPDNWKSQVEPETR [CPN1] | 4.16 ± 0.3 | 4.55 ± 0.28 |  | 
KYLKKREDSIPLRGLSQNLFSNSD [SASS6] | 3.15 ± 0.2 | 3.4 ± 0.29 |  | 
LAAVAWVGQQVHNLLLTYLIVTSL [ARL6IP1] | 3.32 ± 0.44 | 3.3 ± 0.53 |  | 
LACGSNRFNKLGLDHLSLGEEPVP [NEK8] | 3.12 ± 0.14 | 3.2 ± 0.14 |  | 
LAGAALEPAGGGRSREARSRLLLL [SMAD6] | 3.38 ± 0.27 | 3.65 ± 0.31 |  | 
LALFSHLVNHVNIRLQAELEEGEN [SMG5] | 2.5 ± 0.21 | 2.7 ± 0.44 |  | 
LAMGTVSLGQLPLPPIPHVFSAGT [PLAGL1] | 2.24 ± 0.26 | 2.4 ± 0.34 |  | 
LANLRGLSEEERSEKAMLRSRIEE [CCDC89] | 4.67 ± 0.22 | 4.68 ± 0.12 |  | 
LASHLPVGVMLPHNTTEAPGPHSA [ZC2HC1C] | 4.3 ± 0.21 | 4.17 ± 0.21 |  | 
LASQALTPPPGPASAQPLPAPEAA [TFE3] | 5.26 ± 0.25 | 5.24 ± 0.11 |  | 
LAVYIDKVRSLETENSALQLQVTE [LMNB1] | 2.25 ± 0.24 | 2.52 ± 0.083 |  | 
LCARLAAGPGAAEPLPVERDPAAG [ZNF511] | 4.47 ± 0.21 | 4.6 ± 0.21 |  | 
LDTERPVQKRARSGPQPRLPPCLL [TRIB3] | 3.89 ± 0.41 | 4.1 ± 0.3 |  | 
LDYTADEDGVWYSVAPMNVRRGLA [KLHL12] | 2.41 ± 0.81 | 2.99 ± 0.47 |  | 
LEAQVESLKEELMCLKKNHEEEVS [KRT36] | 5.47 ± 0.42 | 5.46 ± 0.15 |  | 
LEEKRLTWRLPDVSEAGGSGRLSA [FCHO1] | 4.37 ± 0.25 | 4.25 ± 0.044 |  | 
LEFSLLSYAFGKFPTVVWTWWIMF [SOAT1] | 2.98 ± 0.6 | 2.95 ± 0.59 |  | 

Sequence | protein stability index [1] | protein stability index [2] | protein stability index (treatment: DMSO, c terminus: native) | protein stability index (treatment: MLN4924 1 uM, 8 h, c terminus: native)
LEFYRYYQQLKLEGPGEQETKLDL [SLC29A1] | 2.953 ± 0.027 | 3.11 ± 0.35 |  | 
LEHVRALIKKYSDHLENVSKLVES [TRIM55] | 3.02 ± 0.28 | 3.1 ± 0.17 |  | 
LENAEVLELTVRRVQGVLRGRARE [HES6] | 3.81 ± 0.33 | 3.88 ± 0.19 |  | 
LEQTAREILTLLQGVHQGAGFQDI [TSN] | 3.07 ± 0.32 | 2.81 ± 0.38 |  | 
LESLQDGAAESPYSHLGGIDYKTT [RAB40A] | 4.44 ± 0.12 | 4.35 ± 0.11 |  | 
LFTDLFDRKGYMFDYEYDWIGKQL [CSNK1G3] | 2.24 ± 0.32 | 2.15 ± 0.3 |  | 
LGKESFYDTFHTVADMMYFCQMLA [HACD3] | 2.56 ± 0.92 | 3.15 ± 0.99 |  | 
LGLSRAQPVQSKPQKASAPAADPP [PDLIM7] | 4.71 ± 0.16 | 4.86 ± 0.37 |  | 
LHASTVKRYGLGAHRGRLNIQAGI [CPXM2] | 2.52 ± 0.12 | 2.51 ± 0.2 |  | 
LHKQTASDLLDEKEIAKNLIQPIN [FEM1C] | 3.38 ± 0.22 | 3.89 ± 0.18 |  | 
LIETYTGLMSFIGNRNKLGYSLAR [TPRG1] | 2.31 ± 0.31 | 2.21 ± 0.16 |  | 
LIFGLITCLTGVLGVGLGVEISRR [SPNS1] | 2.66 ± 0.23 | 3.13 ± 0.46 |  | 
LIILASGGPQALVNIMRTYTYEKL [CTNNB1] | 3.04 ± 0.21 | 3.35 ± 0.76 |  | 
LIKAKSQARLEEQQRLAHLEDKLR [LRRC45] | 3.77 ± 0.25 | 3.96 ± 0.25 |  | 
LKDWEHSIALRNISLAKGPPGPKG [SCARA5] | 3.68 ± 0.25 | 3.78 ± 0.36 |  | 
LKEELAYLKKNHEEEMNALRGQVG [KRT17] | 4.01 ± 0.36 | 4.05 ± 0.66 |  | 
LKMSYSRGLIPVKRGPSSRSGGPP [RBMY1A1] | 2.95 ± 0.25 | 3.16 ± 0.37 |  | 
LKNGSMGSPVNQQPKKNNVMARTR [FAM219A] | 3.96 ± 0.32 | 4.13 ± 0.27 |  | 
LKPTFTKQQIANLDKQAKLSRAYD [USP39] | 3.61 ± 0.11 | 3.74 ± 0.16 |  | 
LKSLDKEISEAFTSTGFDRHTSPV [BCL2L13] | 3.98 ± 0.36 | 4.12 ± 0.44 |  | 
LLCPETYVWVPIEQCLPSLENSKY [ATE1] | 2.19 ± 0.15 | 2.03 ± 0.18 |  | 
LLDSMCPASTPSVLSSEQEFQMFP [ETS2] | 3.94 ± 0.16 | 4.07 ± 0.28 |  | 
LLEQGAQVNRRSAKGNTALHDCAE [FEM1A] | 4.81 ± 0.22 | 4.9 ± 0.23 |  | 

Sequence | protein stability index [1] | protein stability index [2] | protein stability index (treatment: DMSO, c terminus: native) | protein stability index (treatment: MLN4924 1 uM, 8 h, c terminus: native)
LLHVSSPNLASDSDLSRRSSSTMS [KCNA1] | 4.26 ± 0.069 | 4.37 ± 0.055 |  | 
LLKLEQNTCSVITTLKGHEGSVAC [WDFY1] | 2.84 ± 0.12 | 3.29 ± 0.32 |  | 
LLLAHKADVNAQSSTGNTALTYAC [ANKRD17] | 2.76 ± 0.18 | 2.57 ± 0.18 |  | 
LLLGLKDREGYTSFWNDCISSGLR [GOLPH3] | 2.43 ± 0.5 | 2.11 ± 0.23 |  | 
LLPLQREPLYNWQATKASLKERFA [BTBD1] | 2.8 ± 0.22 | 2.82 ± 0.2 |  | 
LLRLSKHGPGHETPMTIPEFFRES [ACSBG2] | 2.73 ± 0.1 | 3.06 ± 0.25 |  | 
LLVGRYPFHDSDPSALFSKIRRGQ [TRIB1] | 2.22 ± 0.23 | 2.46 ± 0.53 |  | 
LLWSDPADNKIVSHLLVAEPEKIY [ESRRG] | 2.36 ± 0.3 | 2.55 ± 0.16 |  | 
LMISENNFLFRNAASTLTERPCYN [ANKRD40] | 2.16 ± 0.31 | 2.36 ± 0.27 |  | 
LMMCFILPTLVPWYFWGETFQNSV [SCD] | 2.94 ± 0.69 | 3.24 ± 0.075 |  | 
LMVDFAQERQMLQALKFLPVPSAP [FSD1] | 2.21 ± 0.081 | 2.22 ± 0.3 |  | 
LNEEQTLQEVPTGLDSISHDSANC [ETS2] | 5.54 ± 0.073 | 5.33 ± 0.18 |  | 
LNKCFIKVPREKDEPGKGGFWRID [FOXJ1] | 2.98 ± 0.2 | 2.98 ± 0.096 |  | 
LPAGAGAPKAGLEEAPAVTAGLKI [TNFSF13B] | 4.65 ± 0.3 | 4.65 ± 0.15 |  | 
LPCNPCATTNASGNSCGPCGTSQK [KRT34] | 4.71 ± 0.12 | 4.86 ± 0.23 |  | 
LPEPSKRGPPHGWPKLCPCLRSGI [MYCL] | 2.04 ± 0.64 | 2.85 ± 0.054 |  | 
LPHPGLQVATSPDFDGKLKDIAGE [ATL3] | 4.91 ± 0.25 | 5.11 ± 0.26 |  | 
LPKISDPNFVKDLEEDLYELFKKD [PI4K2A] | 3.72 ± 0.24 | 3.88 ± 0.31 |  | 
LPNFAFSVPLAYFLLSQQTDLPEC [TCF25] | 2.72 ± 1.8 | 2.94 ± 0.38 |  | 
LPSDGDHQVPTTAGNKAALLDQIR [WASL] | 4.73 ± 0.24 | 4.1 ± 0.84 |  | 
